Data taken from the supplement of paper PMC11246515.
± gives the standard deviation of the averaged measurements.

Experiment: total protein half-life in vivo (active degradation + dilution); higher = more stable protein
[1] = E. coli NCM3722 delta-clpP delta-lon delta-hslV, growth: N-lim chemostat, doubling time 6 h
[2] = E. coli NCM3722 delta-clpP, growth: N-lim chemostat, doubling time 6 h
[3] = E. coli NCM3722 delta-hslV, growth: N-lim chemostat, doubling time 6 h
[4] = E. coli NCM3722 delta-lon, growth: N-lim chemostat, doubling time 6 h
[5] = E. coli NCM3722 delta-smpB, growth: N-lim chemostat, doubling time 6 h
[6] = wild type E. coli NCM3722, growth: C-lim chemostat, doubling time 3 h
[7] = wild type E. coli NCM3722, growth: C-lim chemostat, doubling time 6 h
[8] = wild type E. coli NCM3722, growth: N-lim chemostat, doubling time 6 h
[9] = wild type E. coli NCM3722, growth: N-lim chemostat, doubling time 12 h
[10] = wild type E. coli NCM3722, growth: P-lim chemostat, doubling time 6 h
[11] = wild type E. coli NCM3722, growth: P-lim chemostat, doubling time 12 h
[12] = wild type E. coli NCM3722, growth: C-lim chemostat, doubling time 12 h

Sequence: MLDNVLRIATRQSPLALWQAHYVKDKLMASHPGLVVELVPMVTRGDVILDTPLAKVGGKGLFVKELEVALLENRADIAVHSMKDVPVEFPQGLGLVTICEREDPRDAFVSNNYDSLDALPAGSIVGTSSLRRQCQLAERRPDLIIRSLRGNVGTRLSKLDNGEYDAIILAVAGLKRLGLESRIRAALPPEISLPAVGQGAVGIECRLDDSRTRELLAALNHHETALRVTAERAMNTRLEGGCQVPIGSYAELIDGEIWLRALVGAPDGSQIIRGERRGAPQDAEQMGISLAEELLNNGAREILAEVYNGDAPA
- total protein half-life in vivo [1]: 3.85 ± 1.1 h
- total protein half-life in vivo [2]: 4.24 ± 0.11 h
- total protein half-life in vivo [3]: 4.0338 ± 0.0026 h
- total protein half-life in vivo [4]: 4.87 ± 0.84 h
- total protein half-life in vivo [5]: 4.04 ± 0.045 h
- total protein half-life in vivo [6]: 2.81 ± 0.084 h
- total protein half-life in vivo [7]: 5.48 ± 0.92 h
- total protein half-life in vivo [8]: 4.12 ± 0.23 h
- total protein half-life in vivo [9]: 7.009 ± 0.051 h
- total protein half-life in vivo [10]: 5.475 ± 0.013 h
- total protein half-life in vivo [11]: 11.4 ± 0.85 h

Sequence: MLDPNLLRNEPDAVAEKLARRGFKLDVDKLGALEERRKVLQVKTENLQAERNSRSKSIGQAKARGEDIEPLRLEVNKLGEELDAAKAELDALQAEIRDIALTIPNLPADEVPVGKDENDNVEVSRWGTPREFDFEVRDHVTLGEMHSGLDFAAAVKLTGSRFVVMKGQIARMHRALSQFMLDLHTEQHGYSENYVPYLVNQDTLYGTGQLPKFAGDLFHTRPLEEEADTSNYALIPTAEVPLTNLVRGEIIDEDDLPIKMTAHTPCFRSEAGSYGRDTRGLIRMHQFDKVEMVQIVRPEDSMAALEEMTGHAEKVLQLLGLPYRKIILCTGDMGFGACKTYDLEVWIPAQNTYREISSCSNVWDFQARRMQARCRSKSDKKTRLVHTLNGSGLAVGRTLVAVMENYQQADGRIEVPEVLRPYMNGLEYIG [P0A8L1]
- total protein half-life in vivo [1]: 5.7 ± 0.32 h
- total protein half-life in vivo [2]: 5.43 ± 0.54 h
- total protein half-life in vivo [3]: 5.59 ± 0.06 h
- total protein half-life in vivo [4]: 5.511 ± 0.051 h
- total protein half-life in vivo [5]: 5.16 ± 0.24 h
- total protein half-life in vivo [6]: 3.66 ± 0.21 h
- total protein half-life in vivo [7]: 6.43 ± 0.77 h
- total protein half-life in vivo [12]: 11.5 ± 0.57 h
- total protein half-life in vivo [8]: 5.63 ± 0.29 h
- total protein half-life in vivo [9]: 9.239 ± 0.058 h
- total protein half-life in vivo [10]: 6.28 ± 0.27 h
- total protein half-life in vivo [11]: 13.3 ± 1.1 h

Sequence: MLDQVCQLARNAGDAIMQVYDGTKPMDVVSKADNSPVTAADIAAHTVIMDGLRTLTPDVPVLSEEDPPGWEVRQHWQRYWLVDPLDGTKEFIKRNGEFTVNIALIDHGKPILGVVYAPVMNVMYSAAEGKAWKEECGVRKQIQVRDARPPLVVISRSHADAELKEYLQQLGEHQTTSIGSSLKFCLVAEGQAQLYPRFGPTNIWDTAAGHAVAAAAGAHVHDWQGKPLDYTPRESFLNPGFRVSIY
- total protein half-life in vivo [1]: 4.77 ± 0.078 h
- total protein half-life in vivo [2]: 4.77 ± 0.62 h
- total protein half-life in vivo [3]: 4.6 ± 0.36 h
- total protein half-life in vivo [4]: 5.51 ± 1.2 h
- total protein half-life in vivo [5]: 4.29 ± 0.011 h
- total protein half-life in vivo [6]: 2.97 ± 0.26 h
- total protein half-life in vivo [7]: 5.69 ± 0.6 h
- total protein half-life in vivo [12]: 10.58 ± 0.1 h
- total protein half-life in vivo [8]: 4.76 ± 0.5 h
- total protein half-life in vivo [9]: 7.931 ± 0.051 h
- total protein half-life in vivo [10]: 6.3 ± 0.95 h
- total protein half-life in vivo [11]: 10.7 ± 0.4 h

Sequence: MLDTNMKTQLKAYLEKLTKPVELIATLDDSAKSAEIKELLAEIAELSDKVTFKEDNSLPVRKPSFLITNPGSNQGPRFAGSPLGHEFTSLVLALLWTGGHPSKEAQSLLEQIRHIDGDFEFETYYSLSCHNCPDVVQALNLMSVLNPRIKHTAIDGGTFQNEITDRNVMGVPAVFVNGKEFGQGRMTLTEIVAKIDTGAEKRAAEELNKRDAYDVLIVGSGPAGAAAAIYSARKGIRTGLMGERFGGQILDTVDIENYISVPKTEGQKLAGALKVHVDEYDVDVIDSQSASKLIPAAVEGGLHQIETASGAVLKARSIIVATGAKWRNMNVPGEDQYRTKGVTYCPHCDGPLFKGKRVAVIGGGNSGVEAAIDLAGIVEHVTLLEFAPEMKADQVLQDKLRSLKNVDIILNAQTTEVKGDGSKVVGLEYRDRVSGDIHNIELAGIFVQIGLLPNTNWLEGAVERNRMGEIIIDAKCETNVKGVFAAGDCTTVPYKQIIIATGEGAKASLSAFDYLIRTKTA
- total protein half-life in vivo [1]: 3.63 ± 0.29 h
- total protein half-life in vivo [2]: 2.59 ± 0.18 h
- total protein half-life in vivo [3]: 2.67 ± 0.26 h
- total protein half-life in vivo [4]: 2.81 ± 0.1 h
- total protein half-life in vivo [5]: 2.68 ± 0.052 h
- total protein half-life in vivo [6]: 2.949 ± 0.0042 h
- total protein half-life in vivo [7]: 4.6889 ± 0.00064 h
- total protein half-life in vivo [12]: 7.3 ± 0.34 h
- total protein half-life in vivo [8]: 2.56 ± 0.047 h
- total protein half-life in vivo [9]: 3.37 ± 0.05 h
- total protein half-life in vivo [10]: 5.26 ± 0.2 h
- total protein half-life in vivo [11]: 9.723 ± 0.068 h

Sequence: MLEDLKRQVLEANLALPKHNLVTLTWGNVSAVDRERGVFVIKPSGVDYSVMTADDMVVVSIETGEVVEGTKKPSSDTPTHRLLYQAFPSIGGIVHTHSRHATIWAQAGQSIPATGTTHADYFYGTIPCTRKMTDAEINGEYEWETGNVIVETFEKQGIDAAQMPGVLVHSHGPFAWGKNAEDAVHNAIVLEEVAYMGIFCRQLAPQLPDMQQTLLDKHYLRKHGAKAYYGQ
- total protein half-life in vivo [7]: 2.27 h
- total protein half-life in vivo [12]: 9.82 h

Sequence: MLEDLRANSWSLRPCCMVLAYRVAHFCSVWRKKNVLNNLWAAPLLVLYRIITECFFGYEIQAAATIGRRFTIHHGYAVVINKNVVAGDDFTIRHGVTIGNRGADNMACPHIGNGVELGANVIILGDITLGNNVTVGAGSVVLDSVPDNALVVGEKARVKVIK [P0ACC9]
- total protein half-life in vivo [4]: 7.07 ± 0.2 h

Sequence: MLEILYQDEWLVAVNKPSGWLVHRSWLDRDEKVVVMQTVRDQIGQHVFTAHRLDRPTSGVLLMGLSSEAGRLLAQQFEQHQIQKRYHAIVRGWLMEEAVLDYPLVEELDKIADKFAREDKGPQPAVTHYRGLATVEMPVATGRYPTTRYGLVELEPKTGRKHQLRRHLAHLRHPIIGDSKHGDLRQNRSGAEHFGLQRLMLHASQLSLTHPFTGEPLTIHAGLDDTWMQALSQFGWRGLLPENERVEFSAPSGQDGEISS [P0AA41]
- total protein half-life in vivo [1]: 4.78 ± 0.18 h
- total protein half-life in vivo [2]: 4.49 ± 0.16 h
- total protein half-life in vivo [3]: 4.87 ± 0.88 h
- total protein half-life in vivo [4]: 4.49 h
- total protein half-life in vivo [5]: 4.34 ± 0.19 h
- total protein half-life in vivo [6]: 3 ± 0.28 h
- total protein half-life in vivo [12]: 11.8 ± 0.17 h
- total protein half-life in vivo [8]: 5.27 ± 1.3 h
- total protein half-life in vivo [9]: 6.98 h
- total protein half-life in vivo [10]: 5.28 ± 0.23 h
- total protein half-life in vivo [11]: 10.91 ± 0.044 h

Sequence: MLELLFLLLPVAAAYGWYMGRRSAQQNKQDEANRLSRDYVAGVNFLLSNQQDKAVDLFLDMLKEDTGTVEAHLTLGNLFRSRGEVDRAIRIHQTLMESASLTYEQRLLAIQQLGRDYMAAGLYDRAEDMFNQLTDETDFRIGALQQLLQIYQATSEWQKAIDVAERLVKLGKDKQRVEIAHFYCELALQHMASDDLDRAMTLLKKGAAADKNSARVSIMMGRVFMAKGEYAKAVESLQRVISQDRELVSETLEMLQTCYQQLGKTAEWAEFLQRAVEENTGADAELMLADIIEARDGSEAAQVYITRQLQRHPTMRVFHKLMDYHLNEAEEGRAKESLMVLRDMVGEKVRSKPRYRCQKCGFTAYTLYWHCPSCRAWSTIKPIRGLDGL [P0AB58]
- total protein half-life in vivo [1]: 5.9 ± 0.22 h
- total protein half-life in vivo [3]: 6.34 ± 0.37 h
- total protein half-life in vivo [4]: 6.43 ± 0.094 h
- total protein half-life in vivo [5]: 6.039 ± 0.011 h
- total protein half-life in vivo [6]: 3.1 ± 0.047 h
- total protein half-life in vivo [7]: 5.91 ± 0.073 h
- total protein half-life in vivo [12]: 12.2 ± 0.99 h
- total protein half-life in vivo [8]: 6.101 ± 0.027 h
- total protein half-life in vivo [9]: 15.2 ± 0.67 h
- total protein half-life in vivo [10]: 5.63 ± 0.45 h
- total protein half-life in vivo [11]: 12.5 ± 0.6 h
